Experimental data: US20030092037A1, “Elk1 phosphorylation related gene” (priority 2001, published 2003)

Test system: MAP kinase cascade activation
Assay: Reporter activity reflecting MAP kinase cascade activation, corrected using an internal control (Elk1-GAL4 luciferase reporter in 293-EBNA cells)
Format: cell-based, human
Conditions: for Reporter activity corrected with internal control, as a factor of null vector (S/B value): 293-EBNA cells, 24 hours; for Dependence of corrected reporter activity on amount of expression plasmid: plasmid 12.5 ng, 25 ng, 50 ng and 100 ng
Method: (in the presence of 5% CO2). […] The method used for introduction was in accordance with the attached protocol. After culturing for 24 hours at 37° C., reporter activity (firefly luciferase acitivity), which reflects MAP kinase cascade activation, and reporter activity being the internal control (sea pansy luciferase) were measured using Picagene Dual (purchased from Toyo Ink Manufacturing) in accordance with the manufacturer's instructions.
Luciferase activity was measured with Perkin Elmer's Wallac ARVOTMST 1420 MULTILABEL COUNTER.
Reporter activity where an expression plasmid comprising the above gene was introduced, which reflects MAP kinase cascade activation corrected with internal control reporter activity, is shown in Table 1, which is expressed as a factor of the same reporter activity where a null vector was introduced (S/B value).

Row | Molecule | Reporter activity corrected with internal control, as a factor of null vector (S/B value) (25 ng/well expression plasmid) | Reporter activity corrected with internal control, as a factor of null vector (S/B value) (50 ng/well expression plasmid) | Reporter activity corrected with internal control, as a factor of null vector (S/B value) (100 ng/well expression plasmid) | Dependence of corrected reporter activity on amount of expression plasmid
1 | 12 (protein, listed as Homo sapiens) MDHHQPGTGRYQVLLNEEDNSESSAIEQPPTSNPAPQIVQAASSAPALETDSSPPPYSSITVEVPTTSDTEVYGEFYPVPPPYSVATSLPTYDEAEKAKAAAMAAAAAETSQRIQEEECPPRDDFSDADQLRVGNDGIFMLAFFMAFIFNWLGFCLSFCITNTIAGRYGAICGFGLSLIKWILIVRFSDYFTGYFNGQYWLWWIFLVLGLLLFFRGFVNYLKVRNMSESMAAAHRTRYFFLL | 2.1 | 2.7 | 3.9 | increases that were dependent on the amount of expression plasmid
2 | 18 (protein, listed as Homo sapiens) MPVQLSEHPEWNESMHSLRISVGGLPVLASMTKAADPRFRPRWKVILTFFVGAAILWLLCSHRPAPGRPPTHNAHNWRLGQAPANWYNDTYPLSPPQRTPAGIRYRIAVIADLDTESRAQEENTWFSYLKKGYLTLSDSGDKVAVEWDKDHGVLESHLAEKGRGMELSDLIVFNGKLYSVDDRTGVVYQIEGSKAVPWVILSDGDGTVEKGFKAEWLAVREIVRKRWRLVKQVSHVGVLGQWIQR | 1.8 | 2.3 | 2.9 | increases that were dependent on the amount of expression plasmid
3 | 16 (protein, listed as Homo sapiens) MSSLGGGSQDAGGSSSSSTNGSGGSGSSGPKAGAADKSAVVAAAAPASVADDTPPPERRNKSGIISEPLNKSLRRSRPLSHYSSFGSSGGSGGGSMMGGESADKATAAAAAASLLANGHDLAAAMAVDKSNPTSKHKSGAVASLLSKAERATELAAEGQLTLQQFAQSTEMLKRVVQEHLPLMSEAGAGLPDMEAVAGAEALNGQSDFPYLGAFPINPGLFIMTPAGVFLAESALHMAGLAEYPMQGELASAISSGKKKRKRCGMCAPCRRRINCEQCSSCRNRKTGHQICKFRKCEELKKKPSAALEKVMLPTGAAFRWFQ | 3.4 | 8.4 | 8.1 | increases that were dependent on the amount of expression plasmid
4 | 6 (protein, listed as Homo sapiens) MEGPGLGSQCRNHSHGPHPPGFGRYGICAHENKELANAREALPLIEDSSNCDIVKATQYGIFERCKELVEAGYDVRQPDKENVSLLHWAAINNRLDLVKFYISKGAVVDQLGGDLNSTPLHWAIRQGHLPMVILLLQHGADPTLIDGEGFSSIHLAVLFQHMPIIAYLISKGQSVNMTDVNGQTPLMLSAHKVIGPEPTGFLLKFNPSLNVVDKIHQNTPLHWAVAAGNVNAVDKLLEAGSSLDIQNVKGETPLDMALQNKNQLIIHMLKTEAKMRANQKFRLWRWLQKCELFLLLMLSVITMWAIGYILDFNSDSWLLKGCLLVTLFFLTSLFPRFLVGYKNLVYLPTAFLLSSVFWIFMTWFILFFPDLAGAPFYFSFIFSIVAFLYFFYKTWATDPGFTKASEEEKKVNIITLAETGSLDFRTFCTSCLIRKPLRSLHCHVCNCCVARYDQHCLWTGRCIGFGNHHYYIFFLFFLSMVCGWIIYGSFIYLSSHCATTFKEDGLWTYLNQIVACSPWVLYILMLATFHFSWSTFLLLNQLFQIAFLGLTSHERISLQKQSKHMKQTLSLRKTPYNLGFMQNLADFFQCGCFGLVKPCVVDWTSQYTMVFHPAREKVLRSV | 2.1 | 2.4 | 2.9 | increases that were dependent on the amount of expression plasmid
